Measured values as given in paper PMC4326527.

Biological target: UAF1-mRFP (UniProt Q8TAF3)
Assay: nuclear relocation assay
Settings: 293T cells co-transfected with UAF1-mRFP; at least 100 cells per slide; three independent experiments; parent: est. 10; read off a plot

Chain of UniProt Q8TAF3 (Q8TAF3 whole entry): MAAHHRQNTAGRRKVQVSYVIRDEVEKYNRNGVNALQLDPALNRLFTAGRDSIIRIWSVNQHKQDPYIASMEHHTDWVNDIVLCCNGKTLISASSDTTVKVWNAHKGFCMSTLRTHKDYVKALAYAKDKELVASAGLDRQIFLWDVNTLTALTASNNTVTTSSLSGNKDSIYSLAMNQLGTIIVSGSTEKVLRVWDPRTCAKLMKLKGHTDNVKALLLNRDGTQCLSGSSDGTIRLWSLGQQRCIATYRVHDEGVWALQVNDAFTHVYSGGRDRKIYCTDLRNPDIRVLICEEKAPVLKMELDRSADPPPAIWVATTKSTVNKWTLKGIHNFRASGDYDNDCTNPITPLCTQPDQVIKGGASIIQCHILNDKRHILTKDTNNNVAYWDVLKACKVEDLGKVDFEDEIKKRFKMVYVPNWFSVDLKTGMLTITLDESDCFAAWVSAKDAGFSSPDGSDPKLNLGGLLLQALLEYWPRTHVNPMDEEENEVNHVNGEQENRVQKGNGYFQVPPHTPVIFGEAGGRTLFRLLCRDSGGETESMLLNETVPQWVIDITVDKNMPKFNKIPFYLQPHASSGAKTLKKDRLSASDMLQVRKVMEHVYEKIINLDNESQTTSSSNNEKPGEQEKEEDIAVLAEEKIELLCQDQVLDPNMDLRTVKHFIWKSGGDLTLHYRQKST

- other: UAF1-mRFP N/C localization (% of cells), nuclear/cytoplasmic (N/C) class: 12 % of cells
Substance: YFP-USP1(del420-520) S313D
